Data on 13 molecules can be found in patent publication US20220402983A1 (Janssen / Centocor, published 2022).

In this test the target is T1, human IL-23R (interleukin-23 receptor) (human, UniProt Q5VWK5 24-629).
T1 sequence (looked up): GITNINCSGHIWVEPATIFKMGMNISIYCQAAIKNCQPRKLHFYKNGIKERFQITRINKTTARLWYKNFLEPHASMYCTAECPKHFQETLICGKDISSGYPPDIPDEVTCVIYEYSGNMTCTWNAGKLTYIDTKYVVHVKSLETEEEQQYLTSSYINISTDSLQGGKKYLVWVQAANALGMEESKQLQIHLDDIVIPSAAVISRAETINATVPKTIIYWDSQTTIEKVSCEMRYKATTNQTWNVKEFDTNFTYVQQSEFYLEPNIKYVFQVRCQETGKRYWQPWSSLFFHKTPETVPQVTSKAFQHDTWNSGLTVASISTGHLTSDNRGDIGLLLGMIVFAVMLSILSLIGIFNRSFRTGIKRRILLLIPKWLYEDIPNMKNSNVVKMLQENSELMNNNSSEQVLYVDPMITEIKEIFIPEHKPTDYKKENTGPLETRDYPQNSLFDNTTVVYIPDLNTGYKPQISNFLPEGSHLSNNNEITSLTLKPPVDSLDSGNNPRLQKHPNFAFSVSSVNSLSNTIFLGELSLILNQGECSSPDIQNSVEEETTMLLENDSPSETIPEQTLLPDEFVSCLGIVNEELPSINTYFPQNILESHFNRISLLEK
Nature of the test: cell-based or functional assay.

Bridges are numbered along the chain shown (N, C = ends). [ ]: non-standard residue; d: D form. The star is where a group is joined. Trp(7-Me) = Cc1cccc2c(C[C@H](N)C(=O)O)c[nH]c12; Phe(4-NH2) = Nc1ccc(C[C@H](N)C(=O)O)cc1; 2Nal = N[C@@H](Cc1ccc2ccccc2c1)C(=O)O; (N-benzyl)Asn = N-benzyl-asparagine; AEF = NCCOc1ccc(C[C@H](N)C(=O)O)cc1; αMeF = C[C@](N)(Cc1ccccc1)C(=O)O; Cit = NC(=O)NCCC[C@H](N)C(=O)O; αMeL = CC(C)C[C@](C)(N)C(=O)O; Pen = CC(C)(S)[C@H](N)C(=O)O; αMeK = C[C@](N)(CCCCN)C(=O)O; Ac5c = NC1(C(=O)O)CCCC1; Thp = NC1(C(=O)O)CCOCC1; Tfa = O=C(C(F)(F)F)*

B1: Compound No. 103 (peptide)
peptide: Ac-[Pen]NTWK(Tfa)[Pen][AEF][2Nal][αMeK]K(Ac)N[Thp]-NH2
modifications: disulfide 1-6
SMILES: CC(=O)NCCCC[C@H](NC(=O)[C@](C)(CCCCN)NC(=O)[C@H](Cc1ccc2ccccc2c1)NC(=O)[C@H](Cc1ccc(OCCN)cc1)NC(=O)[C@H]1NC(=O)[C@H](CCCCNC(=O)C(F)(F)F)NC(=O)[C@H](Cc2c[nH]c3ccccc23)NC(=O)[C@H]([C@@H](C)O)NC(=O)[C@H](CC(N)=O)NC(=O)[C@@H](NC(C)=O)C(C)(C)SSC1(C)C)C(=O)N[C@@H](CC(N)=O)C(=O)NC1(C(N)=O)CCOCC1
In the case of B1, the “PBMC pSTAT3 IC50 (nM)” value is 57 nM.

B2: Compound No. 98 (peptide)
peptide: Ac-[Pen]NTWK(Ac)[Pen][AEF][2Nal][αMeK]K(Ac)N[αMeF]-NH2
modifications: disulfide 1-6
SMILES: CC(=O)NCCCC[C@@H]1NC(=O)[C@H](Cc2c[nH]c3ccccc23)NC(=O)[C@H]([C@@H](C)O)NC(=O)[C@H](CC(N)=O)NC(=O)[C@@H](NC(C)=O)C(C)(C)SSC(C)(C)[C@@H](C(=O)N[C@@H](Cc2ccc(OCCN)cc2)C(=O)N[C@@H](Cc2ccc3ccccc3c2)C(=O)N[C@@](C)(CCCCN)C(=O)N[C@@H](CCCCNC(C)=O)C(=O)N[C@@H](CC(N)=O)C(=O)N[C@@](C)(Cc2ccccc2)C(N)=O)NC1=O
For B2, the “PBMC pSTAT3 IC50 (nM)” value is 15 nM.

B3: Compound No. 102 (peptide)
peptide: Ac-[dR][Pen]NTWK(Ac)[Pen][AEF][2Nal][Ac5c]EN[αMeF]-NH2
modifications: disulfide 2-7
SMILES: CC(=O)NCCCC[C@@H]1NC(=O)[C@H](Cc2c[nH]c3ccccc23)NC(=O)[C@H]([C@@H](C)O)NC(=O)[C@H](CC(N)=O)NC(=O)[C@@H](NC(=O)[C@@H](CCCNC(=N)N)NC(C)=O)C(C)(C)SSC(C)(C)[C@@H](C(=O)N[C@@H](Cc2ccc(OCCN)cc2)C(=O)N[C@@H](Cc2ccc3ccccc3c2)C(=O)NC2(C(=O)N[C@@H](CCC(=O)O)C(=O)N[C@@H](CC(N)=O)C(=O)N[C@@](C)(Cc3ccccc3)C(N)=O)CCCC2)NC1=O
For B3, the “PBMC pSTAT3 IC50 (nM)” value is 8.4 nM.

B4: Compound No. 108 (peptide)
peptide: Ac-[Pen]NT[Trp(7-Me)][Cit][Pen][AEF][2Nal][αMeL]K(Ac)N[Thp]-NH2
modifications: disulfide 1-6
SMILES: CC(=O)NCCCC[C@H](NC(=O)[C@](C)(CC(C)C)NC(=O)[C@H](Cc1ccc2ccccc2c1)NC(=O)[C@H](Cc1ccc(OCCN)cc1)NC(=O)[C@H]1NC(=O)[C@H](CCCNC(N)=O)NC(=O)[C@H](Cc2c[nH]c3c(C)cccc23)NC(=O)[C@H]([C@@H](C)O)NC(=O)[C@H](CC(N)=O)NC(=O)[C@@H](NC(C)=O)C(C)(C)SSC1(C)C)C(=O)N[C@@H](CC(N)=O)C(=O)NC1(C(N)=O)CCOCC1
Turning to B4, the “PBMC pSTAT3 IC50 (nM)” value was found to be 5.1 nM.

B5: Compound No. 107 (peptide)
peptide: Ac-[Pen]NT[Trp(7-Me)]K(Ac)[Pen][AEF][2Nal][αMeK]K(Ac)N[Thp][dY]-NH2
modifications: disulfide 1-6
SMILES: CC(=O)NCCCC[C@@H]1NC(=O)[C@H](Cc2c[nH]c3c(C)cccc23)NC(=O)[C@H]([C@@H](C)O)NC(=O)[C@H](CC(N)=O)NC(=O)[C@@H](NC(C)=O)C(C)(C)SSC(C)(C)[C@@H](C(=O)N[C@@H](Cc2ccc(OCCN)cc2)C(=O)N[C@@H](Cc2ccc3ccccc3c2)C(=O)N[C@@](C)(CCCCN)C(=O)N[C@@H](CCCCNC(C)=O)C(=O)N[C@@H](CC(N)=O)C(=O)NC2(C(=O)N[C@H](Cc3ccc(O)cc3)C(N)=O)CCOCC2)NC1=O
B5: the “PBMC pSTAT3 IC50 (nM)” value turned out to be 11 nM.

B6: Compound No. 112 (peptide)
peptide: Ac-[Pen]NT[Trp(7-Me)]K(Ac)[Pen][AEF][2Nal][αMeK]K(Ac)N[Phe(4-NH2)]-NH2
modifications: disulfide 1-6
SMILES: CC(=O)NCCCC[C@@H]1NC(=O)[C@H](Cc2c[nH]c3c(C)cccc23)NC(=O)[C@H]([C@@H](C)O)NC(=O)[C@H](CC(N)=O)NC(=O)[C@@H](NC(C)=O)C(C)(C)SSC(C)(C)[C@@H](C(=O)N[C@@H](Cc2ccc(OCCN)cc2)C(=O)N[C@@H](Cc2ccc3ccccc3c2)C(=O)N[C@@](C)(CCCCN)C(=O)N[C@@H](CCCCNC(C)=O)C(=O)N[C@@H](CC(N)=O)C(=O)N[C@@H](Cc2ccc(N)cc2)C(N)=O)NC1=O
For B6, the “pStat3 HTRF (nM), IC50, DB cells IL23R pSTAT3 cell assay” value is 2.09 nM.

B7: Compound No. 104 (peptide)
peptide: Ac-[Pen]NT[Trp(7-Me)][Cit][Pen][AEF][2Nal][αMeL]K(Ac)N[αMeF]-NH2
modifications: disulfide 1-6
SMILES: CC(=O)NCCCC[C@H](NC(=O)[C@](C)(CC(C)C)NC(=O)[C@H](Cc1ccc2ccccc2c1)NC(=O)[C@H](Cc1ccc(OCCN)cc1)NC(=O)[C@H]1NC(=O)[C@H](CCCNC(N)=O)NC(=O)[C@H](Cc2c[nH]c3c(C)cccc23)NC(=O)[C@H]([C@@H](C)O)NC(=O)[C@H](CC(N)=O)NC(=O)[C@@H](NC(C)=O)C(C)(C)SSC1(C)C)C(=O)N[C@@H](CC(N)=O)C(=O)N[C@@](C)(Cc1ccccc1)C(N)=O
For B7, the “PBMC pSTAT3 IC50 (nM)” value was determined as 8.2 nM. On the same count and under the same terms, in the case of Ac-[dR][Pen]QTWQ[Pen][AEF][2Nal][Thp]EN[(N-benzyl)Asn]-NH2 (disulfide 2-7) [Compound No. 110] it was 700 nM.

B8: Compound No. 101 (peptide)
peptide: Ac-[dR][Pen]NT[Trp(7-Me)]K(Ac)[Pen][AEF][2Nal][Ac5c]EN[Thp]-NH2
modifications: disulfide 2-7
SMILES: CC(=O)NCCCC[C@@H]1NC(=O)[C@H](Cc2c[nH]c3c(C)cccc23)NC(=O)[C@H]([C@@H](C)O)NC(=O)[C@H](CC(N)=O)NC(=O)[C@@H](NC(=O)[C@@H](CCCNC(=N)N)NC(C)=O)C(C)(C)SSC(C)(C)[C@@H](C(=O)N[C@@H](Cc2ccc(OCCN)cc2)C(=O)N[C@@H](Cc2ccc3ccccc3c2)C(=O)NC2(C(=O)N[C@@H](CCC(=O)O)C(=O)N[C@@H](CC(N)=O)C(=O)NC3(C(N)=O)CCOCC3)CCCC2)NC1=O
In the case of B8, the “PBMC pSTAT3 IC50 (nM)” value amounted to 0.74 nM.

B9: Compound No. 106 (peptide)
peptide: Ac-[dR][Pen]NTWK(Ac)[Pen][AEF][2Nal][Thp]EN[αMeF]-NH2
modifications: disulfide 2-7
SMILES: CC(=O)NCCCC[C@@H]1NC(=O)[C@H](Cc2c[nH]c3ccccc23)NC(=O)[C@H]([C@@H](C)O)NC(=O)[C@H](CC(N)=O)NC(=O)[C@@H](NC(=O)[C@@H](CCCNC(=N)N)NC(C)=O)C(C)(C)SSC(C)(C)[C@@H](C(=O)N[C@@H](Cc2ccc(OCCN)cc2)C(=O)N[C@@H](Cc2ccc3ccccc3c2)C(=O)NC2(C(=O)N[C@@H](CCC(=O)O)C(=O)N[C@@H](CC(N)=O)C(=O)N[C@@](C)(Cc3ccccc3)C(N)=O)CCOCC2)NC1=O
For the molecule B9, the “PBMC pSTAT3 IC50 (nM)” value was found to be 13 nM.

B10: Compound No. 100 (peptide)
peptide: Ac-[Pen]NT[Trp(7-Me)]K(Ac)[Pen][AEF][2Nal][αMeK]K(Ac)N[αMeF][dY]-NH2
modifications: disulfide 1-6
SMILES: CC(=O)NCCCC[C@@H]1NC(=O)[C@H](Cc2c[nH]c3c(C)cccc23)NC(=O)[C@H]([C@@H](C)O)NC(=O)[C@H](CC(N)=O)NC(=O)[C@@H](NC(C)=O)C(C)(C)SSC(C)(C)[C@@H](C(=O)N[C@@H](Cc2ccc(OCCN)cc2)C(=O)N[C@@H](Cc2ccc3ccccc3c2)C(=O)N[C@@](C)(CCCCN)C(=O)N[C@@H](CCCCNC(C)=O)C(=O)N[C@@H](CC(N)=O)C(=O)N[C@@](C)(Cc2ccccc2)C(=O)N[C@H](Cc2ccc(O)cc2)C(N)=O)NC1=O
Regarding B10, the “PBMC pSTAT3 IC50 (nM)” value came to 21 nM.

B11: Compound No. 99 (peptide)
peptide: Ac-[dR][Pen]NT[Trp(7-Me)]Q[Pen][AEF][2Nal][Ac5c]EN[Thp]-NH2
modifications: disulfide 2-7
SMILES: CC(=O)N[C@H](CCCNC(=N)N)C(=O)N[C@@H]1C(=O)N[C@@H](CC(N)=O)C(=O)N[C@@H]([C@@H](C)O)C(=O)N[C@@H](Cc2c[nH]c3c(C)cccc23)C(=O)N[C@@H](CCC(N)=O)C(=O)N[C@H](C(=O)N[C@@H](Cc2ccc(OCCN)cc2)C(=O)N[C@@H](Cc2ccc3ccccc3c2)C(=O)NC2(C(=O)N[C@@H](CCC(=O)O)C(=O)N[C@@H](CC(N)=O)C(=O)NC3(C(N)=O)CCOCC3)CCCC2)C(C)(C)SSC1(C)C
For the molecule B11, the “PBMC pSTAT3 IC50 (nM)” value was found to be 4.2 nM.

B12: Compound No. 105 (peptide)
peptide: Ac-[dR][Pen]NTWK(Ac)[Pen][AEF][2Nal][Thp]EN[Thp]-NH2
modifications: disulfide 2-7
SMILES: CC(=O)NCCCC[C@@H]1NC(=O)[C@H](Cc2c[nH]c3ccccc23)NC(=O)[C@H]([C@@H](C)O)NC(=O)[C@H](CC(N)=O)NC(=O)[C@@H](NC(=O)[C@@H](CCCNC(=N)N)NC(C)=O)C(C)(C)SSC(C)(C)[C@@H](C(=O)N[C@@H](Cc2ccc(OCCN)cc2)C(=O)N[C@@H](Cc2ccc3ccccc3c2)C(=O)NC2(C(=O)N[C@@H](CCC(=O)O)C(=O)N[C@@H](CC(N)=O)C(=O)NC3(C(N)=O)CCOCC3)CCOCC2)NC1=O
Turning to B12, the “PBMC pSTAT3 IC50 (nM)” value was found to be 2.2 nM.
